The target of assay [1] is doubly stabilized microtubules (GMPCPP and paclitaxel) (UniProt Q6B856). Nature of the assay: co-sedimentation.
The target in assay [2] is GMPCPP-stabilized HyLite 647/biotin-labeled microtubules (bovine) (UniProt Q6B856). Nature of the assay: single-molecule TIRF microscopy.
In assay [3] the target is X-rhodamine-labeled dynamic microtubules nucleated from GMPCPP-stabilized Cy5 MT seeds (UniProt Q6B856). Nature of the assay: dynamic MT seed assay.
Assay [4] addresses doubly stabilized microtubules (GMPCPP and paclitaxel) (UniProt Q6B856). Nature of the assay: co-sedimentation. The source holds these as a separate data set.
Assay [5] has as its target GMPCPP-stabilized HyLite 647/biotin-labeled microtubules (bovine) (UniProt Q6B856). Description: single-molecule TIRF microscopy. The source holds these as a separate data set.

Results on 3 substances are retold here after publication PMC10092650.

Read-outs that look alike come from different tables or passages of the source. Where only a bound is given, the exact number is not on record here.

For the substance “GFP-Kif18B (full-length human Kif18B N-terminally tagged with EGFP) (from UniProt Q86Y91-6 1-833) (natural protein)”, the percent pelleted with MTs in assay [1] is more than 90%. Moreover, in assay [2], the dwell time at MT plus ends came to 5.39 s and the mean dwell time on the MT lattice stood at 2.3 s. Also, in assay [3], the percent of two-sided MTs with GFP-Kif18B binding events, with importin α/β came out at 73% and the percent of two-sided MTs with bound GFP-Kif18B was 46%. This substance also gave a percent pelleted with MTs in assay [4] of 79%. In assay [5], the dwell time at MT plus ends turned out to be 5.56 s and the mean dwell time on the MT lattice amounted to 1.77 s.

In assay [1], “YPet-Kif18B(605-828)-His6 (from UniProt Q86Y91-6 605-828) (domain or fragment)” gave a fold increase in the Kd for MTs with importin α/β against without of 9 fold.

In assay [1], “YPet-Kif18B(605-828)-NLS1/2 (from UniProt Q86Y91-6 605-828) (domain or fragment)” returned a fold increase in the Kd for MT binding relative to YPet-Kif18B(605-828) of 2 fold.
